Measurements: patent publication US20150203577A1 (Chugai, published 2015)
Substitutions are numbered along the chain they refer to. Numbers in names are those of the source.

T1: mouse FcγRII (mouse, UniProt P08101 30-210)
T1 construct: Extracellular domain with C-terminal His tag, made in FreeStyle 293 cells; also called mFcγRII; mFcgRII
T1 sequence: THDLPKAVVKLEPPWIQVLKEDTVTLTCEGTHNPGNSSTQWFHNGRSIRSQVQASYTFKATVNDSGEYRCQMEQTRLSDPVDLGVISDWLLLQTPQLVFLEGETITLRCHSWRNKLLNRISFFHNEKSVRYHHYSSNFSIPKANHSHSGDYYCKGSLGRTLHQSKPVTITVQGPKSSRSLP

T2: mouse FcγRIII (mouse, UniProt P08508 31-215)
T2 construct: Extracellular domain with C-terminal His tag, made in FreeStyle 293 cells; also called mFcγRIII; mFcgRIII
T2 chain: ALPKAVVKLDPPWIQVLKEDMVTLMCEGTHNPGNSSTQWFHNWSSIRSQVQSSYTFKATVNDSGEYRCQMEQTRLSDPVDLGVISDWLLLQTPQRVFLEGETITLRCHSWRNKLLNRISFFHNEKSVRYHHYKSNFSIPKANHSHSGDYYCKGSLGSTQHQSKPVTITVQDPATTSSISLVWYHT

T3: mouse FcγRII extracellular domain, C-terminal His tag (mouse, UniProt P08101 30-210)
T3 construct: Whole entry named; also called mFcγRII; mFcgRII
T3 sequence: T1 sequence

T4: mouse FcγRIII extracellular domain, C-terminal His tag (mouse, UniProt P08508 31-215)
T4 construct: Whole entry named; also called mFcγRIII; mFcgRIII
T4 chain: T2 chain

B1: H237-MB886/MRAL-k0 (antibody, mouse IgG1, kappa)
heavy: QVQLQESGPGLVKPSETLSLTCAVSGHSISHDHAWSWVRQPPGEGLEWIGFISYSGITNYNPSLQGRVTISRDNSKNTLYLQMNSLRAEDTAVYYCARSLARTTAMDYWGEGTLVTVSSAKTTPPSVYPLAPGSAAQTNSMVTLGCLVKGYFPEPVTVTWNSGSLSSGVHTFPAVLQSDLYTLSSSVTVPSSTWPSETVTCNVAHPASSTKVDKKIVPRDCGCKPCICEPNEEESVFIFPPKPKDVLTITLTPKVTCVVVDISKDDPEVQFSWFVDDVEVHTAQTQPREEQFNSTFRSVSELPIMHQDWLNGKEFKCRVNSAAFPAPIEKTISKTKGRPKAPQVYTIPPPKEQMAKDKVSLTCMITDFFPEDITVEWQWNGQPAENYKNTQPIMDTDGSYFVYSKLNVQKSNWEAGNTFTCSVLHEGLHNHHTEKSLSHSPGK
light: not shown
notes: copies: 2 + 2
B2: H237-MB731/MRAL-k0 (antibody, mouse IgG1, kappa)
heavy: B1 heavy with N231A, S235L
light: not shown
notes: copies: 2 + 2
B3: H237-MB717/MRAL-k0 (antibody, mouse IgG1, kappa)
heavy: B1 heavy with E233V, S235P
light: not shown
notes: copies: 2 + 2
B4: H237-MB718/MRAL-k0 (antibody, mouse IgG1, kappa)
heavy: B1 heavy with E233V, S235T
light: not shown
notes: copies: 2 + 2
B5: H237-MB715/MRAL-k0 (antibody, mouse IgG1, kappa)
heavy: B1 heavy with E233V, S235V
light: not shown
notes: copies: 2 + 2
B6: H237-MB732/MRAL-k0 (antibody, mouse IgG1, kappa)
heavy: B1 heavy with S235L
light: not shown
notes: copies: 2 + 2
B7: H237-MB793/MRAL-k0 (antibody)
heavy: B1 heavy with E229Q, E233V, S235I
light: not shown
notes: 'S2391' in r30c2 read as S239I; copies: 2 + 2
B8: H237-MB628/MRAL-k0 (antibody)
heavy: B1 heavy with N231A, E233V, S235L
light: not shown
notes: copies: 2 + 2
B9: H237-MB698/MRAL-k0 (antibody, mouse IgG1, kappa)
heavy: B1 heavy with P230V, N231P, S235L
light: not shown
notes: copies: 2 + 2
B10: H237-MB695/MRAL-k0 (antibody, mouse IgG1, kappa)
heavy: B1 heavy with E229T, E233V, S235F
light: not shown
notes: copies: 2 + 2
B11: H237-MB703/MRAL-k0 (antibody, mouse IgG1, kappa)
heavy: B1 heavy with P230A, N231P, E233V, S235N
light: not shown
notes: copies: 2 + 2
B12: H237-MB657/MRAL-k0 (antibody, mouse IgG1, kappa)
heavy: B1 heavy with E233V, S235F
light: not shown
notes: copies: 2 + 2
B13: H237-MB693/MRAL-k0 (antibody, mouse IgG1, kappa)
heavy: B1 heavy with E229T, P230D, N231Y, E233V, S235Y
light: not shown
notes: copies: 2 + 2
B14: H237-MB696/MRAL-k0 (antibody, mouse IgG1, kappa)
heavy: B1 heavy with P230V, E233V, S235F
light: not shown
notes: copies: 2 + 2
B15: H237-MB645/MRAL-k0 (antibody, mouse IgG1, kappa)
heavy: B1 heavy with P230V, N231Y, E233V, S235Y
light: not shown
notes: copies: 2 + 2
B16: H237-MB690/MRAL-k0 (antibody, mouse IgG1, kappa)
heavy: B1 heavy with E229T, N231A, E233V, S235Y
light: not shown
notes: copies: 2 + 2
B17: H237-MB636/MRAL-k0 (antibody, mouse IgG1, kappa)
heavy: B1 heavy with P230V, N231Y, E233V, S235N
light: not shown
notes: copies: 2 + 2
B18: H237-MB642/MRAL-k0 (antibody, mouse IgG1, kappa)
heavy: B1 heavy with P230D, N231Y, E233V, S235Y
light: not shown
notes: copies: 2 + 2
B19: H237-MB692/MRAL-k0 (antibody, mouse IgG1, kappa)
heavy: B1 heavy with N231P, E233V, S235Y
light: not shown
notes: copies: 2 + 2
B20: H237-MB689/MRAL-k0 (antibody, mouse IgG1, kappa)
heavy: B1 heavy with P230V, N231P, E233V, S235N
light: not shown
notes: copies: 2 + 2
B21: H237-MB694/MRAL-k0 (antibody)
heavy: B1 heavy with P230D, N231P, E233V, S235Y
light: not shown
notes: copies: 2 + 2
B22: H237-MB632/MRAL-k0 (antibody, mouse IgG1, kappa)
heavy: B1 heavy with P230A, N231Y, E233V, S235N
light: not shown
notes: copies: 2 + 2
B23: H237-MB686/MRAL-k0 (antibody, mouse IgG1, kappa)
heavy: B1 heavy with P230V, N231A, E233V, S235L
light: not shown
notes: copies: 2 + 2
B24: H237-MB700/MRAL-k0 (antibody, mouse IgG1, kappa)
heavy: B1 heavy with P230V, N231P, S235Y
light: not shown
notes: copies: 2 + 2
B25: H237-MB691/MRAL-k0 (antibody, mouse IgG1, kappa)
heavy: B1 heavy with P230V, N231A, E233V, S235Y
light: not shown
notes: copies: 2 + 2
B26: H237-MB685/MRAL-k0 (antibody, mouse IgG1, kappa)
heavy: B1 heavy with E229T, N231A, E233V, S235L
light: not shown
notes: copies: 2 + 2
B27: H237-MB688/MRAL-k0 (antibody, mouse IgG1, kappa)
heavy: B1 heavy with E229T, P230V, N231Y, E233V, S235N
light: not shown
notes: copies: 2 + 2
B28: H237-MB687/MRAL-k0 (antibody)
heavy: B1 heavy with N231P, E233V, S235L
light: not shown
notes: copies: 2 + 2
B29: H237-MB702/MRAL-k0 (antibody, mouse IgG1, kappa)
heavy: B1 heavy with E229T, P230A, N231Y, E233V, S235N
light: not shown
notes: copies: 2 + 2
B30: H237-MB646/MRAL-k0 (antibody, mouse IgG1, kappa)
heavy: B1 heavy with N231A, E233V, S235Y
light: not shown
notes: copies: 2 + 2

The binders below were run against T1, mouse FcγRII (assay: SPR (Biacore), antibody captured on Protein L).

Kd | Binder
246 nM | B1
238 nM | B2
514 nM | B3
247 nM | B4
236 nM | B5
321 nM | B6
179 nM | B7

Target: T2, mouse FcγRIII
Assay: SPR (Biacore), antibody captured on Protein L

Kd | Binder
7.22 µM | B1
15.3 µM | B2
8.62 µM | B3
5.56 µM | B4
11.9 µM | B5
13.7 µM | B6
5.5 µM | B7

What follows are binders tested against T1, mouse FcγRII (assay: SPR (Biacore), KD of H237-mIgG1/MRAL-k0 (same run) / KD of variant).
Protocol: (§1) Each altered antibody was analyzed for its interaction with each Fcγ receptor prepared above using Biacore T100 (GE Healthcare Japan Corp.), Biacore T200 (GE Healthcare Japan Corp.), Biacore A100, or Biacore 4000. The running buffer used was HBS-EP+ (GE Healthcare Japan Corp.). The assay temperature was set to 25° C. The sensor chips used were chips prepared by immobilizing Protein L (ACTIGEN or BioVision) onto Series S Sensor Chip CM5 (GE Healthcare Japan Corp.) or Series S Sensor Chip CM4 (GE Healthcare Japan Corp.) by the amine coupling method.
(§2) In order to calculate the KD value of each altered antibody for FcγR, kinetic analysis was conducted according to the following method: first, the antibody of interest was captured onto any of these chips and allowed to interact with mFcγR diluted with a running buffer. For the obtained sensorgram, the assay results were globally fit into the 1:1 Langmuir binding model using Biacore Evaluation Software to calculate an association rate constant ka (L/mol/s) and a dissociation rate constant kd (1/s). From these values, the dissociation constant KD (mol/L) was calculated.

relative mFcγRII-binding activity (mIgG1 = 1) | Binder
1.47 fold | B1
1.13 fold | B2
0.52 fold | B3
1.08 fold | B4
1.14 fold | B5
0.84 fold | B6
1.37 fold | B7

Target: T2, mouse FcγRIII
Assay: as above
Protocol: as §1, §2

relative mFcγRIII-binding activity (mIgG1 = 1) | Binder
0.08 fold | B1
0.03 fold | B2
0.05 fold | B3
0.08 fold | B4
0.04 fold | B5
0.03 fold | B6
0.07 fold | B7

Each binder was assayed against T3, mouse FcγRII extracellular domain, … (assay: SPR (Biacore T200); KD of H237-mIgG1/MRAL-k0 / KD of variant).
From the text: (§3) The antibody H chain variable region used was the variable region H237 (SEQ ID NO: 1) of the H chain VH3-IgG1 of the anti-IL-6 receptor antibody Fv4-IgG1 described in WO2009/125825. The antibody L chain commonly used was the L chain MRAL-k0 (SEQ ID NO: 2) of the anti-IL-6 receptor antibody tocilizumab. The aforementioned 7 variants were used as templates to substitute the amino acids at the alteration sites by the amino acids before the alteration. These variants were expressed and purified by the method of Reference Example 1 and evaluated for their binding to mFcγRII and mFcγRIII by the method of Reference Example 2 using Biacore T200.
as §1

relative mFcγRII-binding activity (mIgG1 = 1) | Binder
2.09 fold | B8
0.194 fold | B9
0.435 fold | B10
0.943 fold | B11
1.54 fold | B12
1.22 fold | B13
0.4 fold | B14
1.06 fold | B15
1.6 fold | B16
3.92 fold | B17
1.65 fold | B18
1.75 fold | B19
0.413 fold | B20
0.544 fold | B21
3.72 fold | B22
0.167 fold | B23
0.559 fold | B24
0.582 fold | B25
0.606 fold | B26
0.634 fold | B27
0.943 fold | B28
0.96 fold | B29
3.8 fold | B30

Target: T4, mouse FcγRIII extracellular domain, …
Assay: as above
From the text: as §3, §1

relative mFcγRIII-binding activity (mIgG1 = 1) | Binder
0.083 fold | B8
0.024 fold | B9
0.088 fold | B10
0.104 fold | B11
0.087 fold | B12
0.094 fold | B13
0.094 fold | B14
0.217 fold | B15
0.188 fold | B16
0.172 fold | B17
0.1 fold | B18
0.115 fold | B19
0.075 fold | B20
0.031 fold | B21
0.236 fold | B22
0.052 fold | B23
0.044 fold | B24
0.071 fold | B25
0.093 fold | B26
0.081 fold | B27
0.096 fold | B28
0.145 fold | B29
0.176 fold | B30
